{"source": "patent US20240000786A1", "about": "“COMPOSITION FOR ENHANCING INTRA-CELLULAR NITRIC OXIDE GENERATION” (INSTITUTE OF LIFE SCIENCES, priority 2020, published 2024)", "molecules": {"B1": {"name": "NOSIP: recombinant Nitric oxide synthase interacting protein expressed in E. coli BL21 (DE3) (protein, UniProt Q9Y314 1-301, looked up)", "Nitric oxide …": "MTRHGKNCTAGAVYTYHEKKKDTAASGYGTQNIRLSRDAVKDFDCCCLSLQPCHDPVVTPDGYLYEREAILEYILHQKKEIARQMKAYEKQRGTRREEQKELQRAASQDHVRGFLEKESAIVSRPLNPFTAKALSGTSPDDVQPGPSVGPPSKDKDKVLPSFWIPSLTPEAKATKLEKPSRTVTCPMSGKPLRMSDLTPVHFTPLDSSVDRVGLITRSERYVCAVTRDSLSNATPCAVLRPSGAVVTLECVEKLIRKDMVDPVTGDKLTDRDIIVLQRGGTGFAGSGVKLQAEKSRPVMQA"}}, "key": {"recombinant iNOS": {"biological_target": "T1, recombinant iNOS (Homo sapiens, UniProt P35228)", "T1 construct": "made in house; host or cells: E. coli BL21 (DE3)", "T1 sequence (P35228 with tags, fused parts or gaps limits assumed)": "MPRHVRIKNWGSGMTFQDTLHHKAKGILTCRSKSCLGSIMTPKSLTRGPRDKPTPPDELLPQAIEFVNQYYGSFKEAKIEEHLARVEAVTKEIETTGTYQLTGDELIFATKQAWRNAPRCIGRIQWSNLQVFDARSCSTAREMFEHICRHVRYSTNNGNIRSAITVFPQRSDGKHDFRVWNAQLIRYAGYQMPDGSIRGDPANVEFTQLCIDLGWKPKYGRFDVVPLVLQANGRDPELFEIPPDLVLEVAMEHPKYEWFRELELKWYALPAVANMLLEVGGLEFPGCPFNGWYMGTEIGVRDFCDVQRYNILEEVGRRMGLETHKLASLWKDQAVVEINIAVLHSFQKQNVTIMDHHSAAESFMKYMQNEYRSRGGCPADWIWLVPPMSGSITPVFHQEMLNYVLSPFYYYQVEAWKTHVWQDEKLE", "assay": "iNOS enzyme activity in presence of recombinant NOSIP, Griess reaction", "type": "biochemical", "details": "iNOS 0.5 μM, NOSIP 0.5 to 5 μM, substrate L-Arginine", "description": "The human iNOS oxygenase domain (SEQ ID No.: 24) containing 424 nucleotide sequence and NOSIP gene (SEQ ID No.: 23) containing 301 nucleotide sequences were synthesized by GenScript and cloned in pET22b expression vector. The recombinant pET22b: iNOS and pET22b: NOSIP plasmid was used to transform competent E. coli BL21 (DE3) cells. The proteins were over expressed using 0.2 mM IPTG at 25° C. The harvested cells were resuspended and sonicated in 20 mM Tris-HCl, pH 7.5, 200 mM NaCl, 0.05% Triton X-100 and protease inhibitor (Sigma). The expressed proteins were purified by nickel nitrilotriacetic acid column using 250 mM imidazole and gel filtration chromatography. The protein was quantified by Bradford assay (Sigma) and integrity of purified protein was checked on 12% SDS-PAGE.\nIn a […] assay increasing concentrations of recombinant NOSIP were mixed with recombinant iNOS along with substrate L-Arginine and the resultant product, […] was quantified by using Griess reaction kit. […] Statistical significance was assessed by one way ANOVA, Tukey& #39;s Multiple Comparison Test."}, "[1]": {"biological_target": "T2, iNOS-NOSIP protein interaction (Homo sapiens, UniProt Q9Y314)", "T2 construct": "made in house; host or cells: E. coli BL21 (DE3)", "T2 sequence (Q9Y314 with tags, fused parts or gaps)": "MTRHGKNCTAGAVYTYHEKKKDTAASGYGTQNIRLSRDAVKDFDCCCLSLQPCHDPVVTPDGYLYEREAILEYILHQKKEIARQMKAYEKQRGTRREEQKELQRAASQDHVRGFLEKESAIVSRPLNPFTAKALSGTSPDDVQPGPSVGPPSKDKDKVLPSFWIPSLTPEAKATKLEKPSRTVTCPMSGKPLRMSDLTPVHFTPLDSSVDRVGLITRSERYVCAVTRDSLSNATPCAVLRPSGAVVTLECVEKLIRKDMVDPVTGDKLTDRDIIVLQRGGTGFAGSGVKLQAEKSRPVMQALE", "assay": "SPR: inhibition of rNOSIP association with immobilized recombinant iNOS by iNOS peptides / small molecules", "type": "binding", "details": "analyte rNOSIP alone or + peptide/small molecule, ligand r iNOS, 20° C.", "description": "Four different iNOS peptides were synthesized commercially by China peptides and iNOS peptides were used for molecular interaction studies with immobilized recombinant iNOS purified protein. The iNOS peptides mediated inhibition of rNOSIP and riNOS protein association in Bio-Rad XPR 36 surface plasmon resonance biosensor instrument. […] 250 nM of iNOS peptides was used for inhibition assay with immobilized ligand(recombinant iNOS) in SPR analysis. Similar condition and concentration of small molecules were used for inhibition of recombinant protein association with immobilized ligand. […] The rNOSIP protein was incubated with iNOS derived peptide/small molecules for 30 minutes in ice for inhibition assay before the SPR application in our study. The molecular interaction was carried out at 20° C. and kinetic parameters were determined, after fitting the association and dissociation curves to a 1:1 (Langmuir)-binding model. An activated channel without immobilized ligand was used to evaluate nonspecific binding. The response curves were also recorded on control surfaces. Results were calculated after subtraction of the control values using the ProteOn Manager software.\nThe collected sensorgram data were processed by reference subtraction using double-referencing with the in-line blank buffer. The integrated ProteOn Manager software was used to fit the data with the Langmuir model describing a 1:1 binding stoichiometry. Ka is the association rate constant, Kd is the dissociation rate constant, and KD is the equilibrium dissociation constant, defined by the Kd/Ka ratio for the analytes-ligand binding.\nThe five small molecules bind with NOSIP and inhibit the association of recombinant NOSIP and recombinant iNOS. The rNOSIP protein was incubated with iNOS derived peptide or small molecules for 30 minutes in ice prior to SPR application. The molecular interaction was carried out at 20° C. and kinetic parameters were determined, after fitting the association and dissociation curves to a 1:1 (Langmuir)-binding model. An activated channel without immobilized ligand (recombinant iNOS) was used to evaluate nonspecific binding. The response curves were also recorded on control surfaces. Results were calculated after subtraction of the control values using the ProteOn Manager software.\nThe collected sensorgram data were processed by reference subtraction using double-referencing with the in-line blank buffer. The integrated ProteOn\nManager software was used to fit the data with the Langmuir model describing a 1:1 binding stoichiometry. Ka is the association rate constant, Kd is the dissociation rate constant, and KD is the equilibrium dissociation constant, defined by the Kd/Ka ratio for the analytes—ligand binding."}}, "data": [{"molecule": "B1", "values": [{"measurement": "inhibition of iNOS enzyme activity (Griess)", "setting": "recombinant iNOS", "result": "inhibits enzyme activity of iNOS"}, {"measurement": "Ka(1/Ms)", "setting": "[1]; 1:1 Langmuir", "result": 9.57, "unit": "e^+04 1/Ms"}, {"measurement": "Kd", "setting": "[1]; Kd/Ka", "result": 7.11, "unit": "nM"}]}]}
